Results on one molecule are retold here after patent publication CN111087470A.

The target in the test is 人CD47 (human) (UniProt Q08722). The test is described as follows: flow cytometry on red blood cells, commercial B6H12.2 as comparison.

B1: 商品化抗CD47抗体B6H12.2 (antibody, from another filing)
scFv: EVQLVESGGDLVKPGGSLKLSCAASGFTFSGYGMSWVRQTPDKRLEWVATITSGGTYTYYPDSVKGRFTISRDNAKNTLYLQIDSLKSEDTAIYFCARSLAGNAMDYWGQGTSVTVSSGGGGSGGGGSGGGGSDIVMTQSPATLSVTPGDRVSLSCRASQTISDYLHWYQQKSHESPRLLIKFASQSISGIPSRFSGSGSGSDFTLSINSVEPEDVGVYYCQNGHGFPRTFGGGTKLEIKEQKLISEEDL
For the molecule B1, the 结合率 turned out to be 99.2%.
